One block for each binder: values may come before it.
B2: Brr1, full length, HT-tag removed (natural protein, S. cerevisiae, UniProt Q99177 1-341, looked up)
chain: MKRGESQAPDAIFGQSRAFALSDSSVNPDVIEYLKSVRQEALRTNAISIKNHMNLQKRTRHKSSMYDDEDEGALKRHAISPSLIRLQRNVEIWVRWFNSVKATVLTNAYEFTGYEDETLDLLLLFLKNYLEDMPSKCTTVEKIISVLNQHSFPEKAEEKEENLQIDEEWAKNILVRLEKTKIDSVEDVKKVITEGDKHELVGYNQWFQYLINNEPQHTTFHEKITSKQLWVLIKYMSNTWIKEIHKKGRHYRRLQDWLFYILVHTPERVTAEYTSILRDLGKKCLELIQKKPVEAHENKITLPKEMAELNVEIPAAVENMTITELTVSVIAVNYGQKDLIE
B3: HT-Brr1, full-length Brr1 with N-terminal HT-tag (natural protein, S. cerevisiae, UniProt Q99177 1-341, looked up)
chain: MKRGESQAPDAIFGQSRAFALSDSSVNPDVIEYLKSVRQEALRTNAISIKNHMNLQKRTRHKSSMYDDEDEGALKRHAISPSLIRLQRNVEIWVRWFNSVKATVLTNAYEFTGYEDETLDLLLLFLKNYLEDMPSKCTTVEKIISVLNQHSFPEKAEEKEENLQIDEEWAKNILVRLEKTKIDSVEDVKKVITEGDKHELVGYNQWFQYLINNEPQHTTFHEKITSKQLWVLIKYMSNTWIKEIHKKGRHYRRLQDWLFYILVHTPERVTAEYTSILRDLGKKCLELIQKKPVEAHENKITLPKEMAELNVEIPAAVENMTITELTVSVIAVNYGQKDLIE
B6: Lot5ΔC, Lot5 (residues 1–227), as used in GFC (domain or fragment, S. cerevisiae, UniProt P34234 1-227, looked up)
chain: MMKKKPKCQIARTKPSVENVIPYNQFKKTQPRFNGNFSALNNEEYIILFGGGRDLILGSLTPCSSSHLSNQANPQDTSEYGTDLFILNSCIIIWFNGLGYGLEIPYSSVLYHASRRLPDGREGLQLEILLTLERDEVLDMLYQSLAPQACEFDGEEAHAFTVRSVELTIRPKYSIYDRHYNNEIETLFTFENFGVNRGDDLVNNCNEALAVCMDLHGEDVQDQDQEQ
B7: HT-Lot5ΔC, Lot5 (residues 1–227) with N-terminal HT-tag (domain or fragment, S. cerevisiae, UniProt P34234 1-227, looked up)
chain: MMKKKPKCQIARTKPSVENVIPYNQFKKTQPRFNGNFSALNNEEYIILFGGGRDLILGSLTPCSSSHLSNQANPQDTSEYGTDLFILNSCIIIWFNGLGYGLEIPYSSVLYHASRRLPDGREGLQLEILLTLERDEVLDMLYQSLAPQACEFDGEEAHAFTVRSVELTIRPKYSIYDRHYNNEIETLFTFENFGVNRGDDLVNNCNEALAVCMDLHGEDVQDQDQEQ

Legend:
[1] = target: T1, full-length Lot5 with N-terminal HT-tag (S. cerevisiae, UniProt P34234 1-306); assay: pull-down
T1 sequence (looked up): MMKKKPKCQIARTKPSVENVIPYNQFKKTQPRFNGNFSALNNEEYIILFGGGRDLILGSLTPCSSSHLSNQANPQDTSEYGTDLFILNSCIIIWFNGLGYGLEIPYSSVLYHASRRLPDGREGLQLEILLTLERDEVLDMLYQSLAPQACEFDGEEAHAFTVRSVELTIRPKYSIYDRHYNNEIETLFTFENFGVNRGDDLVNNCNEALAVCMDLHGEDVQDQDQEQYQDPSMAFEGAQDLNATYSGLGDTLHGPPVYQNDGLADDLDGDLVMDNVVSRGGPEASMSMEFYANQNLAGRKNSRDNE

[2] = target: B7; assay: pull-down
[3] = target: B6; assay: SEC
[4] = target: T2, D1/D2/F/E/G pentamer (5Sm) (S. cerevisiae, UniProt Q02260 1-109; Q06217 1-110; P54999 1-86; Q12330 1-94; P40204 1-77); assay: SEC
T2 sequence (looked up) 1: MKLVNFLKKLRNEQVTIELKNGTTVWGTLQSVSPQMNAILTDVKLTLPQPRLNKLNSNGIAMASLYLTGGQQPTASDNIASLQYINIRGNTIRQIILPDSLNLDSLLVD
T2 sequence (looked up) 2: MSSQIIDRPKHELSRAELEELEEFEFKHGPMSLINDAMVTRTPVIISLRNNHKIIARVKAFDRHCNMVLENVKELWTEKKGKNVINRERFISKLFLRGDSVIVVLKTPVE
T2 sequence (looked up) 3: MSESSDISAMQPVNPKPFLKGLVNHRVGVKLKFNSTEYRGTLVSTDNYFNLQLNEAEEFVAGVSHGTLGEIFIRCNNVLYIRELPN
T2 sequence (looked up) 4: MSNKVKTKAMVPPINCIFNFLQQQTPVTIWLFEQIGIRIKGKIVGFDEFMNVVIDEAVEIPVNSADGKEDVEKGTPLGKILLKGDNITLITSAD
T2 sequence (looked up) 5: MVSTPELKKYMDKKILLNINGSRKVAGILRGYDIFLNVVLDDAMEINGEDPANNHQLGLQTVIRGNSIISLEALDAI

[5] = target: T2, D1/D2/F/E/G pentamer (5Sm); assay: pull-down
[6] = target: T3, Brr1Δ(122-197) with N-terminal HT-tag (S. cerevisiae, UniProt Q99177 1-341, Δ(122-197)); assay: pull-down
T3 sequence (looked up): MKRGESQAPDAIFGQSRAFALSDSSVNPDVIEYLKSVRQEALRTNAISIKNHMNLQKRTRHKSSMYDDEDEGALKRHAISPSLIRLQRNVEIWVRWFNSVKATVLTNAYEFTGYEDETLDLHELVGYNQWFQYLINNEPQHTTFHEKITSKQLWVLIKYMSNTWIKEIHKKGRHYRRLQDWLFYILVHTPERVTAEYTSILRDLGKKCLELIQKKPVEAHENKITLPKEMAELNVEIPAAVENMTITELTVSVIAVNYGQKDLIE

[7] = target: B3; assay: pull-down
[8] = target: B2; assay: SEC
[9] = target: T2, D1/D2/F/E/G pentamer (5Sm); assay: pull-down; remark: listed apart in the source

binding result [1]: binds | binding result [2]: binds | binding result [3]: binds
B1: D1/D2 (SmD1/SmD2 subcomplex, HT-tag removed) (complex, S. cerevisiae)
chain 1: MKLVNFLKKLRNEQVTIELKNGTTVWGTLQSVSPQMNAILTDVKLTLPQPRLNKLNSNGIAMASLYLTGGQQPTASDNIASLQYINIRGNTIRQIILPDSLNLDSLLVD
chain 2: MSSQIIDRPKHELSRAELEELEEFEFKHGPMSLINDAMVTRTPVIISLRNNHKIIARVKAFDRHCNMVLENVKELWTEKKGKNVINRERFISKLFLRGDSVIVVLKTPVE

Binder: B2
binding result [4]: binds

Binder: B3
binding result [5]: binds

binding result [1]: binds | binding result [2]: binds | binding result [3]: binds
B4: D3/B (SmD3/SmB subcomplex, HT-tag removed) (complex, S. cerevisiae)
chain 1: MSKIQVAHSSRLANLIDYKLRVLTQDGRVYIGQLMAFDKHMNLVLNECIEERVPKTQLDKLRPRKDSKDGTTLNIKVEKRVLGLTILRGEQILSTVVEDKPLLSK
chain 2: MTMNGIPVKLLNEAQGHIVSLELTTGATYRGKLVESEDSMNVQLRDVIATEPQGAVTHMDQIFVRGSQIKFIVVPDLLKNAPLFKKNS

binding result [6]: binds | binding result [7]: binds | binding result [8]: binds
B5: F/E/G (SmF/SmE/SmG subcomplex, HT-tags removed) (complex, S. cerevisiae)
chain 1: MSESSDISAMQPVNPKPFLKGLVNHRVGVKLKFNSTEYRGTLVSTDNYFNLQLNEAEEFVAGVSHGTLGEIFIRCNNVLYIRELPN
chain 2: MSNKVKTKAMVPPINCIFNFLQQQTPVTIWLFEQIGIRIKGKIVGFDEFMNVVIDEAVEIPVNSADGKEDVEKGTPLGKILLKGDNITLITSAD
chain 3: MVSTPELKKYMDKKILLNINGSRKVAGILRGYDIFLNVVLDDAMEINGEDPANNHQLGLQTVIRGNSIISLEALDAI

Binder: B6
binding result [4]: binds

Binder: B7
binding result [9]: binds

From article PMC11965559 (Nature Communications, 2024)
